Experimental data from the supplement of paper PMC9112550, “Optimization of the antimicrobial peptide Bac7 by deep mutational scanning” (BMC Biology, 2022).

Test system: Escherichia coli TOP10
Assay: shrunken log2 fold change of peptide-encoding DNA abundance (4.5 h post-induction vs induction); higher = less antimicrobial activity (less host growth inhibition)
Details: time post-induction: 4.5 h; library: site-saturation at positions 5, 18, 19, 20
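Note: peptides expressed intracellularly from a pBAD plasmid library in pooled LB shake-flask culture, induced with 0.3% L-arabinose, DNA abundance read by NGS, three biological replicates, DESeq2 with apeglm shrinkage.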

Row | Sequence | shrunken log2 fold change
1 | RRIRMRPPRLPRPRPRPMWWPRP | -0.00447
2 | RRIRMRPPRLPRPRPRPMYWPRP | -0.169
3 | RRIRMRPPRLPRPRPRPNAMPRP | 0.16
4 | RRIRMRPPRLPRPRPRPNAQPRP | 0.43
5 | RRIRMRPPRLPRPRPRPNARPRP | 0.323
6 | RRIRMRPPRLPRPRPRPNCAPRP | 0.317
7 | RRIRMRPPRLPRPRPRPNFFPRP | 0.128
8 | RRIRMRPPRLPRPRPRPNKVPRP | 0.0418
9 | RRIRMRPPRLPRPRPRPNMCPRP | 0.0492
10 | RRIRMRPPRLPRPRPRPNMMPRP | -0.0235
11 | RRIRMRPPRLPRPRPRPNNMPRP | -0.309
12 | RRIRMRPPRLPRPRPRPNPLPRP | 0.567
13 | RRIRMRPPRLPRPRPRPNQFPRP | -0.0124
14 | RRIRMRPPRLPRPRPRPNQIPRP | 0.283
15 | RRIRMRPPRLPRPRPRPNRMPRP | -0.189
16 | RRIRMRPPRLPRPRPRPNSMPRP | -0.22
17 | RRIRMRPPRLPRPRPRPNVPPRP | 0.0131
18 | RRIRMRPPRLPRPRPRPNYYPRP | -0.576
19 | RRIRMRPPRLPRPRPRPPALPRP | 1.13
20 | RRIRMRPPRLPRPRPRPPATPRP | 2.56
21 | RRIRMRPPRLPRPRPRPPCKPRP | -0.0348
22 | RRIRMRPPRLPRPRPRPPCYPRP | -0.0907
23 | RRIRMRPPRLPRPRPRPPDCPRP | 0.865
24 | RRIRMRPPRLPRPRPRPPFDPRP | 0.873
25 | RRIRMRPPRLPRPRPRPPFKPRP | 0.173

Row | Sequence | shrunken log2 fold change
26 | RRIRMRPPRLPRPRPRPPFQPRP | 0.202
27 | RRIRMRPPRLPRPRPRPPFSPRP | 0.239
28 | RRIRMRPPRLPRPRPRPPGFPRP | 0.619
29 | RRIRMRPPRLPRPRPRPPIAPRP | 0.826
30 | RRIRMRPPRLPRPRPRPPIFPRP | 0.00125
31 | RRIRMRPPRLPRPRPRPPLFPRP | 0.919
32 | RRIRMRPPRLPRPRPRPPLHPRP | 0.691
33 | RRIRMRPPRLPRPRPRPPLMPRP | 1.34
34 | RRIRMRPPRLPRPRPRPPLYPRP | 0.445
35 | RRIRMRPPRLPRPRPRPPQVPRP | 0.995
36 | RRIRMRPPRLPRPRPRPPRFPRP | 1.23
37 | RRIRMRPPRLPRPRPRPPRGPRP | 1.17
38 | RRIRMRPPRLPRPRPRPPRPPRP | 1.75
39 | RRIRMRPPRLPRPRPRPPTVPRP | 0.593
40 | RRIRMRPPRLPRPRPRPPTYPRP | 0.306
41 | RRIRMRPPRLPRPRPRPPVEPRP | 0.664
42 | RRIRMRPPRLPRPRPRPPVYPRP | 0.167
43 | RRIRMRPPRLPRPRPRPPWEPRP | 0.601
44 | RRIRMRPPRLPRPRPRPPWQPRP | 0.763
45 | RRIRMRPPRLPRPRPRPPWSPRP | 0.596
46 | RRIRMRPPRLPRPRPRPQAHPRP | 0.0821
47 | RRIRMRPPRLPRPRPRPQCGPRP | 0.096
48 | RRIRMRPPRLPRPRPRPQCHPRP | 0.0857
49 | RRIRMRPPRLPRPRPRPQCIPRP | 0.0157
50 | RRIRMRPPRLPRPRPRPQDAPRP | 0.0668

Row | Sequence | shrunken log2 fold change
51 | RRIRMRPPRLPRPRPRPQDDPRP | -0.00208
52 | RRIRMRPPRLPRPRPRPQDIPRP | -0.0524
53 | RRIRMRPPRLPRPRPRPQEKPRP | 0.01
54 | RRIRMRPPRLPRPRPRPQGVPRP | -0.0179
55 | RRIRMRPPRLPRPRPRPQHYPRP | -0.116
56 | RRIRMRPPRLPRPRPRPQIHPRP | 0.149
57 | RRIRMRPPRLPRPRPRPQKGPRP | -0.0123
58 | RRIRMRPPRLPRPRPRPQMMPRP | 0.443
59 | RRIRMRPPRLPRPRPRPQPAPRP | 1.55
60 | RRIRMRPPRLPRPRPRPQPLPRP | 0.224
61 | RRIRMRPPRLPRPRPRPQPQPRP | 0.717
62 | RRIRMRPPRLPRPRPRPQQEPRP | 0.137
63 | RRIRMRPPRLPRPRPRPQREPRP | 0.203
64 | RRIRMRPPRLPRPRPRPQTGPRP | -0.0549
65 | RRIRMRPPRLPRPRPRPQTLPRP | 0.0245
66 | RRIRMRPPRLPRPRPRPQWDPRP | 0.232
67 | RRIRMRPPRLPRPRPRPQWWPRP | 0.245
68 | RRIRMRPPRLPRPRPRPQYDPRP | -0.204
69 | RRIRMRPPRLPRPRPRPQYHPRP | -0.299
70 | RRIRMRPPRLPRPRPRPQYRPRP | -0.0939
71 | RRIRMRPPRLPRPRPRPRDDPRP | 0.202
72 | RRIRMRPPRLPRPRPRPRDGPRP | 2.69
73 | RRIRMRPPRLPRPRPRPRDNPRP | 0.455
74 | RRIRMRPPRLPRPRPRPRFAPRP | 0.728
75 | RRIRMRPPRLPRPRPRPRGHPRP | 1.33

Row | Sequence | shrunken log2 fold change
76 | RRIRMRPPRLPRPRPRPRIHPRP | 0.0221
77 | RRIRMRPPRLPRPRPRPRIVPRP | 0.16
78 | RRIRMRPPRLPRPRPRPRKKPRP | 1.43
79 | RRIRMRPPRLPRPRPRPRLTPRP | 1.13
80 | RRIRMRPPRLPRPRPRPRNMPRP | 0.281
81 | RRIRMRPPRLPRPRPRPRPFPRP | 0.647
82 | RRIRMRPPRLPRPRPRPRPWPRP | 0.996
83 | RRIRMRPPRLPRPRPRPRRDPRP | 0.651
84 | RRIRMRPPRLPRPRPRPRRGPRP | 1.09
85 | RRIRMRPPRLPRPRPRPRRLPRP | 0.817
86 | RRIRMRPPRLPRPRPRPRVDPRP | 0.95
87 | RRIRMRPPRLPRPRPRPRVHPRP | 0.446
88 | RRIRMRPPRLPRPRPRPRVNPRP | 1.08
89 | RRIRMRPPRLPRPRPRPRVVPRP | 0.246
90 | RRIRMRPPRLPRPRPRPRYLPRP | -0.0395
91 | RRIRMRPPRLPRPRPRPRYNPRP | -0.151
92 | RRIRMRPPRLPRPRPRPSALPRP | 0.105
93 | RRIRMRPPRLPRPRPRPSATPRP | 3.21
94 | RRIRMRPPRLPRPRPRPSAWPRP | 1.75
95 | RRIRMRPPRLPRPRPRPSCFPRP | -0.145
96 | RRIRMRPPRLPRPRPRPSFYPRP | -0.29
97 | RRIRMRPPRLPRPRPRPSHPPRP | -0.0222
98 | RRIRMRPPRLPRPRPRPSIKPRP | -0.0928
99 | RRIRMRPPRLPRPRPRPSKWPRP | -0.104
100 | RRIRMRPPRLPRPRPRPSLAPRP | 0.566

Row | Sequence | shrunken log2 fold change
101 | RRIRMRPPRLPRPRPRPSLWPRP | 1.72
102 | RRIRMRPPRLPRPRPRPSNEPRP | 0.287
103 | RRIRMRPPRLPRPRPRPSNMPRP | -0.0931
104 | RRIRMRPPRLPRPRPRPSPDPRP | 1.19
105 | RRIRMRPPRLPRPRPRPSPIPRP | -0.106
106 | RRIRMRPPRLPRPRPRPSPNPRP | 0.0416
107 | RRIRMRPPRLPRPRPRPSQDPRP | 0.224
108 | RRIRMRPPRLPRPRPRPSQNPRP | 0.407
109 | RRIRMRPPRLPRPRPRPSRNPRP | 0.476
110 | RRIRMRPPRLPRPRPRPSSPPRP | 0.16
111 | RRIRMRPPRLPRPRPRPSVRPRP | -0.00857
112 | RRIRMRPPRLPRPRPRPSYGPRP | -0.0196
113 | RRIRMRPPRLPRPRPRPSYNPRP | -0.808
114 | RRIRMRPPRLPRPRPRPSYPPRP | -0.412
115 | RRIRMRPPRLPRPRPRPTALPRP | 0.33
116 | RRIRMRPPRLPRPRPRPTCAPRP | 0.827
117 | RRIRMRPPRLPRPRPRPTDEPRP | 0.116
118 | RRIRMRPPRLPRPRPRPTEIPRP | -0.0223
119 | RRIRMRPPRLPRPRPRPTFLPRP | -0.319
120 | RRIRMRPPRLPRPRPRPTGYPRP | 0.0453
121 | RRIRMRPPRLPRPRPRPTHVPRP | -0.00477
122 | RRIRMRPPRLPRPRPRPTLNPRP | 0.299
123 | RRIRMRPPRLPRPRPRPTLYPRP | 0.16
124 | RRIRMRPPRLPRPRPRPTMNPRP | 0.0381
125 | RRIRMRPPRLPRPRPRPTMWPRP | 0.274

Row | Sequence | shrunken log2 fold change
126 | RRIRMRPPRLPRPRPRPTNNPRP | -0.0518
127 | RRIRMRPPRLPRPRPRPTNWPRP | 0.474
128 | RRIRMRPPRLPRPRPRPTSNPRP | 0.00211
129 | RRIRMRPPRLPRPRPRPTTNPRP | 0.403
130 | RRIRMRPPRLPRPRPRPTVYPRP | -0.0666
131 | RRIRMRPPRLPRPRPRPTWYPRP | -0.112
132 | RRIRMRPPRLPRPRPRPVCLPRP | 0.174
133 | RRIRMRPPRLPRPRPRPVDNPRP | 0.113
134 | RRIRMRPPRLPRPRPRPVEEPRP | 0.292
135 | RRIRMRPPRLPRPRPRPVERPRP | 0.015
136 | RRIRMRPPRLPRPRPRPVFRPRP | -0.0467
137 | RRIRMRPPRLPRPRPRPVGSPRP | 0.99
138 | RRIRMRPPRLPRPRPRPVHHPRP | 0.00757
139 | RRIRMRPPRLPRPRPRPVHTPRP | 0.213
140 | RRIRMRPPRLPRPRPRPVKNPRP | 0.00715
141 | RRIRMRPPRLPRPRPRPVKPPRP | 0.202
142 | RRIRMRPPRLPRPRPRPVLFPRP | 0.289
143 | RRIRMRPPRLPRPRPRPVNKPRP | -0.256
144 | RRIRMRPPRLPRPRPRPVQHPRP | 0.415
145 | RRIRMRPPRLPRPRPRPVSEPRP | -0.38
146 | RRIRMRPPRLPRPRPRPVTEPRP | -0.0547
147 | RRIRMRPPRLPRPRPRPVTHPRP | 0.0493
148 | RRIRMRPPRLPRPRPRPVTIPRP | -0.0206
149 | RRIRMRPPRLPRPRPRPVTKPRP | 0.253
150 | RRIRMRPPRLPRPRPRPWADPRP | -0.108
